The record followed here is the DeepSol protein solubility set.

This series in a line: soluble on expression in E. coli; label from the status in PepcDB or PDB records.
As to “MGSDKIHHHHHHMDEVLSFKRGRVPLLISMPHPGTRLTPAVDAGLVEEARALTDTDWHIPRLYDFAEELGASTLAAHYSRYVVDLNRPSDDKPLYSTATTGLYPDTLFDGRPLYREGMAPSAEERMRYLAEVWTPYHRTIAEELARLKAEFGYALLWDAHSIRSHVPHLFDGRLPDFNLGTNAGASCDPALAARLEAVCAAAEGYSHVLNGRFKGGHITRHYGQPEQHVHAVQLELAQCTYMDEQAPFAYRADLAEATRAVIRELLESLLAWGRERYA”, the “soluble on expression in E. coli” value is given as “not soluble”.
Take “MKRNGETKRRRNVAEEAEQGEDPAMWENLDRNFRQVQSVLDRNRSLIQQVNDNHQSRMADNMSKNVALIQELNGNISKVVNMYSDLNTSFSSGFHGGKNGHDGGGAAGTRA”: the “soluble on expression in E. coli” value is recorded as “soluble”.
With “GSHMKVLLLGFEFLPVKVGGLAEALTAISEALASLGHEVLVFTPSHGRFQGEEIGKIRVFGEEVQVKVSYEERGNLRIYRIGGGLLDSEDVYGPGWDGLIRKAVTFGRASVLLLNDLLREEPLPDVVHFHDWHTVFAGALIKKYFKIPAVFTIHRLNKSKLPAFYFHEAGLSELAPYPDIDPEHTGGYIADIVTTVSRGYLIDEWGFFRNFEGKITYVFNGIDCSFWNESYLTGSRDERKKSLLSKFGMDEGVTFMFIGRFDRGQKGVDVLLKAIEILSSKKEFQEMRFIIIGKGDPELEGWARSLEEKHGNVKVITEMLSREFVRELYGSVDFVIIPSYFEPFGLVALEAMCLGAIPIASAVGGLRDIITNETGILVKAGDPGELANAILKALELSRSDLSKFRENCKKRAMSFSWEKSAERYVKAYTGSIDRAFDFIL”, the “soluble on expression in E. coli” value is listed as “soluble”.
In the case of “HLEGLGASVLDFTGFAQKFGTVLSYIRLGAKPDTLHQVRIDTGGADAVIGCDMVVSSAPKASAHYRNGTKVVLNRAEMPTGDLVLHRDAQLKIDTREAAIRAVVGTENVSGFDANQTAEQLLGDAVFANVMMLGYAWQQGLVPVSRSALAQAILLNGVAVEKNRLAFAAGRALAADPARLDVESASPE”, the “soluble on expression in E. coli” value is reported as “not soluble”.
For “MTLLRTTLLSSLLATVVLGASAAPRTEVIPLNYRTADDVMAVAQSVIGSEGKVTAYGNQLIVNAEPAKIRELQSVLQQIDSRPHRLLITVDTSENLQQDSRGYSVDGSASAGNIEIQSGRGEVNGKDRVRIIRRSTDSRSGGSQQVQATEGYPALIQVGQSVPITSTATGPYGQIYSQTEYRNVNRGFYVTATLTGNLVHVTISSSNDRLSQSHPGVIDTQSTDTRVSGKLGEWITLGGVSEQNQADQRGFVRRYSTQGRDDTSLRLKVETLDLEHHHHHH” the value was “not soluble”; for “MAKTLYEKLFDSHIVYEAEGETPILYINRHLIHEVTSPQAFDGLRVANRQVRQVNKTFGTMDHSISTQVRDVNKLEGQAKIQVLELDKNTKATGIKLFDITTKEQGIVHVMGPEQGLTLPGMTIVCGDSHTATHGAFGALAFGIGTSEVEHVLATQTLKQARAKSMKIEVRGKVASGITAKDIILAIIGKTTMAGGTGHVVEFCGEAIQDLSMEGRMTVCNMAIEMGAKAGLIAPDETTFAYLKDRPHAPKGKDWEDAVAYWKTLKSDDDAQFDTVVTLEAKDIAPQVTWGTNPGQVISVNETIPNPQEMADPVQRASAEKALHYIGLEAGTNLKDIKVDQVFIGSCTNSRIEDLRAAAAVMKGRKKADNVKRILVVPGSGLVKEQAEKEGLDKIFIAAGAEWRNPGCSMCLGMNDDRLGEWERCASTSNRNFEGRQGRNGRTHLVSPAMAAAAGVFGKFVDIRDVTLN”, “not soluble”.
For “MGSDKIHHHHHHMKSLIHCLFLIPLFFVQAHAEVTITLPDSAEPLLLNGKDITSHQLISQNGPQQLVFNARASYREFGQQKRFVSETLIVTFSGENNHYRVSLPKISSPKSAEKFNDVPQIGLTDTQGNKVAYKIDKLLKDGIQIGRNYSEEIKAYNIGQGVAAIAINQPVQMAPSTSSSASSGAASPAATSTALAAQQTTAPQGAQPVGQPTSQPNTQPVSQTGTPRRDQINVGQMLDFWYEQADEATREAFKKRIGLIEQAQRDGH”, the “soluble on expression in E. coli” value is recorded as “not soluble”.
On to “GKVAKPVLLHQSSTEVSSTNQVEVPDTTQSSPVSISSGLNSDPDMVDSPVVTGVSGMAVASVMGSLSQSATVFMSEVTNEAVYTMSPTAGPNHHLLSPDASQGLVLAVSSDGHKFAFPTTGSSESLSMLPTNVSEELVLSTTLDGGRKIPETTMNFDPDCFLNNPKQGQTYGGGGLKAEMVSSNIRHSPPGERSFSFTTVLTKEIKTEDTSFEQQMAKEAYSSSAAAVAASSLTLTAGSSLLPSGGGLSPSTTLEQMDFSAIDSNKDYTSSFSQTGHSPHIHQTPSPSFFLQDASKPLPVEQNTHSSLSDSGGTFVMPTVKTEASSQTSSCSGHVETRIESTSSLHLMQFQANFQAMTAEGEVTMETSQAAEGSEVLLKSGELQACSSEHYLQPETNGVIRSAGGVPILPGNVVQGLYPVAQPSLGNASNMELSLDHFDISFSNQFSDLINDFISVEGGSSTIYGHQLVSGDSTALSQSEDGARAPFTQAEMCLPCCSPQQGSLQLSSSEGGASTMAYMHVAEVVSAASAQGTLGMLQQSGRVFMVTDYSPEWSYPEGGVKVLITGPWQEASNNYSCLFDQISVPASLIQPGVLRCYCPAHDTGLVTLQVAFNNQIISNSVVFEYKARALPTLPSSQHDWLSLDDNQFRMSILERLEQMERRMAEMTGSQQHKQASGGGSSGGGSGSGNGGSQAQCASGTGALGSCFESRVVVVCEKMMSRACWAKSKHLIHSKTFRGMTLLHLAAAQGYATLIQTLIKWRTKHADSIDLELEVDPLNVDHFSCTPLMWACALGHLEAAVVLYKWDRRAISIPDSLGRLPLGIARSRGHVKLAECLEHLQRDEQAQLGQNPRIHCPASEEPSTESWMAQWHSEAISSPEIPKGVTVIASTNPELRRPRSEPSNYYSSESHKDYPAPKKHKLNPEYFQTRQEKLLPTALSLEEPNIRKQSPSSKQSVPETLSPSEGVRDFSRELSPPTPETAAFQASGSQPVGKWNSKDLYIGVSTVQVTGNPKGTSVGKEAAPSQVRPREPMSVLMMANREVVNTELGSYRDSAENEECGQPMDDIQVNMMTLAEHIIEATPDRIKQENFVPMESSGLERTDPATISSTMSWLASYLADADCLPSAAQIRSAYNEPLTPSSNTSLSPVGSPVSEIAFEKPNLPSAADWSEFLSASTSEKVENEFAQLTLSDHEQRELYEAARLVQTAFRKYKGRPLREQQEVAAAVIQRCYRKYKQLTWIALKYALYKKMTQAAILIQSKFRSYYEQKKFQQSRRAAVLIQKYYRSYKKCGKRRQARRTAVIVQQKLRSSLLTKKQDQAARKIMRFLRRCRHSPLVDHRLYKRSERIEKGQGT”, for which the “soluble on expression in E. coli” value is reported as “soluble”.
Turning to “KLVFLHGLGQDKTAWNDVIAALPHYDCLALDLFDEGKMPENFTTLVEQVATELKGIEEDFVLIGLSLGAMLALALSDYTFPHIKGFIVSGAQHDLKRSFLYKLQLLGLQLLPKSFFKKQGVKKDSFLAFSKSLSTLDLRETIRQIDIPALILCGQKDKPNLLPARKIAELIPNARLSVIKKGGHLLNTKMPIVFAKEITDFLK”, the “soluble on expression in E. coli” value is on record as “not soluble”.
For the sequence “MAHHHHHHMTDIAHGSRYDRDAAISTAAEQVAAGQYAENKPRAIMFVNKRPVEIIPQEENVLEVLEREGITVPKFCYHPILSVAGNCRMCMVQVDGTQNIVVACSTVALPGMSIITDSRLVRDAREGNVELILINHPNDCPICEQATNCDLQNVSMNYGTDIPRYREDKKAVEDFYFDPQTRVVLNRCIHCTRCIRFLNEHAQDFNLGQIGRGGLSEISTFLDELEVKTDNNMPVSQLCPVGKLYMGDADENNDIVRELEAAGATA”, the “soluble on expression in E. coli” value is reported as “not soluble”.
As for “MAGDPMDTISRISSYVAGKVVKYPGLKYIAGVAISYAIHKFEESGLWRSVPIDKYIQLPRELEHHHHHH”, the “soluble on expression in E. coli” value is given as “not soluble”.
Turning to “MGSDKIHHHHHHMRVIELEDLDHIREAIVILKGLEVEGANKPGEKLGFKKGKNLMSIFTCKEMDRFIRDVQERKNFSLETNAYFFELHSKRFVSLRYLPKKSLLFVNDLTEERTLSEAKLDFVTAVSHELFTPLSASKANVFLLKDIENDPEKLEILGKVERSLDRMETIIRQLKVLTMIQLRLYELKMEHIPVEEVVHMVLEELREKIESKKIKVNVFVDVETIETDRFVFHTILKNLVSNAVKYSYPDSVVEISITGERLSVKDQGIGIKEEEKSRIFERFYRGSEALKMAPGSGLGLSIVKHLCDTIGYRLEVNSQWLVGSEFIVHFK”, the “soluble on expression in E. coli” value was “not soluble”.
Consider “KANELKPIPFSQRTTPSILDLRKQQATVTQNKIRTDITRFCYGQEAHLDRALAYLGLSPSDEKRPIVTGLRETELNGAYSLILEFDSPLIPIDIWQQKHAKMTKYFAPNVEVKITQPAENRIELELIKTQ”, for which the “soluble on expression in E. coli” value is listed as “not soluble”.
In the case of “MKQGLQLRLSQQLAMTPQLQQAIRLLQLSTLELQQELQQALENNPLLEQTDLHDEIDTQQPQDNDPLDTADALEQKEMPEELPLDASWDEIYTAGTPSGPSGDYIDDELPVYQGETTQSLQDYLMWQVELTPFSDTDRAIATSIVDAVDDTGYLTVSLDEIRESMGDVEVDLDEVEAVLKRIQRFDPVGVAAKDLRDCLLIQLSQFDKSTPWLEEARLIICDHLDLLANHDFRTLMRVTRLKEEVLKEAVNLIQSLDPRPGQSIQTGEPEYVIPDVLVRKHNGRWTVELNSDSIPRLQINQHYAAMCNSARNDADSQFIRSNLQDAKWLIKSLESRNDTLLRVSRCIVEQQQAFFEQGEEYMKPMVLADIAQAVEMHESTISRVTTQKYLHSPRGIFELKYFFSSHVNTEGGGEASSTAIRALVKKLIAAENPAKPLSDSKLTSLLSEQGIMVARRTVAKYRESLSIPPSNQRKQLV”, the “soluble on expression in E. coli” value is recorded as “not soluble”.
Take “MNMIDKIGVHDVPPGESLQPPRIPYTPIFSNKRLSKHMSRFLIYFLPFFIYSGNVLSKTSCLMATGVLKCPTDPEAVKKVHIDLWDEDSLPLESDDLMGRTWSDRNGNFQVTGCASDFGPINTPDPYLYIQHNCPHRDSNATNPIQVYLKVLENASF”: the “soluble on expression in E. coli” value is reported as “not soluble”.
Turning to “MTNESEVGVKKAAELLRQGATMLEEACPICKMPLFKLKNGDVVCPVHGKVYIVKSDDEEKIVKRNLQLDEIESILIDGLYLSAKKMKEDPLDSERIIQIIRYLDALERLRKIKINSSE”, the “soluble on expression in E. coli” value was “not soluble”.
Consider “MGNPTGFINVGRALPTERKAGERLSDWLEVYEEIPLKAVEKQASRCMDCGVPFCQSAKSEFAPAVAGCPVNNVIPEWNDLIYRGRWKDAIELLHKTNNFPEFTGRVCPAPCEGACVLGINADPVAIKLHEKEIIDHAFKEGWVVAQPPSARTGKNVAVIGSGPAGLAAAAQLNKAGHMVTVYERADRIGGLLMYGIPNMKLQKELVQRRVDILAEEGIVFVTNTEVGKDVSVEKLESDFDAIVLCIGATVPRDLPVEGRELNGVHFAMDFLKANTKSLLDSEHKDGQYINAQGKNVVVIGGGDTGTDCIGTSLRHQCTNALQLEIMPRPPEKREENNNPWPQWPKRLLVDYGQKEAIEIQGQDPRQYLVMTKKIESDVQGNVKAVHTVDITWERNDKGQMFPQEVAGSEKAIPADIVLIAMGFMGPEGGLVEQFGLEQDNRSNIAAEYDKFATSKQGVFAAGDGRRGQSLIVWAIDEGRRCAREVDSYLMGKSYLPLEHHHHHH”, for which the “soluble on expression in E. coli” value is on record as “not soluble”.
As for “MGSDKIHHHHHHMFSISHPGDFESLKIIVNEINKLRKINKKLKKESFEVYVGFPEFVGTGRATLYKPNFEDLAKQVNYAKKHNVRFEVVINASCIGGMHLTPKGISYINWIFSQLKNIGVDSVALSDPYLVDLAKNNGLEVNVSCIALVDSLDKALFWDEKEVYAITLDSSINRHFDIIQEIRENVSCKLKILVNEACLYKCPMRIQHFNFFSHANAQNIPALDDYYYNKCINLRIKKKELIIKSPFIRPEDLKYYKGLVDIFKISGRSHPIGWIKRVINAYLNERWDGNLMELLDCPRELEHFYYLDNRALDGAIEYWKSCNKLCSKCNFCKELAEKALKVKY”, the “soluble on expression in E. coli” value is given as “not soluble”.
